Data on three molecules can be found in patent US20230167192A1 (SUZHOU ZELGEN BIOPHARMACEUTICALS, published 2023).

In experiment [1] the target is monkey CD47 on monkey erythrocytes (monkey). As to the kind of experiment: flow cytometry on monkey erythrocytes. (A flow cytometer gives signals particle by particle.)
Experiment [2] deals with T1, human CD47 on cells (human, UniProt Q08722 19-323).
T1 construct: whole, on cells; also called CHO-CD47 cells; MKN-45
The experiment can be described thus: flow cytometry, inhibition of SIRPα-mFc binding to CHO-CD47 cells.

The target in experiment [3] is T1, human CD47 on cells. As to the kind of experiment: flow cytometry on MKN-45 cells. The protocol: (§1) First, the inventors verified the expression of CD47 in the above 3 cell lines using flow cytometry. Serially diluted solutions of anti-human CD47 detection antibody (eBioscience, 17-0479-42) and APC isotype (eBioscience, 17-4714-41), anti-huIgG 633 (life technologies, A21091) were prepared with PBS to formulate 2× working solutions at final concentrations. The three tumor cells were collected, washed with PBS once, counted, and diluted to 4×10⁶/mL cell suspension. For each cell line, 50 μL of the antibody working solution was added into 50 μL of cell suspension, and the mixture was incubated at 4° C. in the dark for 30 min. After washing twice with PBS, a corresponding fluorescence-labeled secondary antibody (anti-huIgG 633) was added, and the mixture was incubated for 30 min at 4° C. in the dark, washed twice with PBS, and suspended with 400 μL of FACS buffer. The binding of the antibodies to the cells was detected by a flow cytometer.
(§2) The method is the same as above.

The target in experiment [4] is T1, human CD47 on cells. As to the kind of experiment: flow cytometry on SW620 cells. The protocol: as §1, §2
The target in experiment [5] is T1, human CD47 on cells. The experiment can be described thus: flow cytometry on human erythrocytes; human erythrocytes, flow cytometry. On the procedure:
Erythrocytes were first isolated from the peripheral blood of volunteers and suspended in physiological saline to obtain an erythrocyte suspension with a concentration of 2%. Serially diluted antibody solutions were prepared with PBS to formulate 2× working solutions at final concentrations. 50 μL of the antibody working solution was added into 50 μL of erythrocyte suspension, and the mixture was incubated at 4° C. in the dark for 60 min. After washing twice with PBS, a corresponding fluorescence-labeled secondary antibody was added, and the mixture was incubated for 30 min at 4° C. in the dark, washed twice with PBS, and suspended with 400 μL of FACS buffer. The binding of the antibodies to the erythrocytes was detected by a flow cytometer. For erythrocyte agglutination detection, 50 μL of the antibody working solution was also added into 50 μL of erythrocyte suspension. The mixture was placed on a 96-well round bottom plate, let stand at room temperature for 2 h, observed and photographed.

Experiment [6] concerns the target T1, human CD47 on cells. As to the kind of experiment: flow cytometry on A2780 cells. On the procedure: as §1, §2
The target of experiment [7] is T2, human CD47 protein (human, UniProt Q08722 19-139, limits assumed). The experiment can be described thus: ELISA, plate coated with human CD47 protein. On the procedure:
The next day, the plate was washed 3 times with 300 μL of PBST (Tween 20: 0.5‰), then blocked with 5% BSA/PBS at 100 μL/well for 2 h, and shaken at room temperature. The plate was then washed with 300 μL of PBST 3 times. The antibody samples prepared with PBS were serially diluted, added to a 96-well plate at 100 μL/well and shaken for 1 h at room temperature. The plate was then washed with 300 μL of PBST 3 times. A secondary goat anti-mouse IgG HRP or goat anti-human IgG HRP solution was prepared, added to a 96-well plate at 100 μL/well and shaken for 1 h at room temperature. The plate was then washed with 300 μL of PBST 4 times. TMB was added at 100 μL/well for 20 min of chromogenesis. The chromogenesis was terminated by adding 0.6 N H₂SO₄ at 100 μL/well and the OD_{450 nm} was detected.
(ELISA stands for enzyme-linked immunosorbent assay.)

The target in experiment [8] is monkey CD47 on monkey erythrocytes (monkey, UniProt A0A2K5X4H8 19-305). As to the kind of experiment: flow cytometry on monkey erythrocytes.
monkey CD47 on monkey erythrocytes, sequence (A0A2K5X4H8 entry or part of it limits assumed): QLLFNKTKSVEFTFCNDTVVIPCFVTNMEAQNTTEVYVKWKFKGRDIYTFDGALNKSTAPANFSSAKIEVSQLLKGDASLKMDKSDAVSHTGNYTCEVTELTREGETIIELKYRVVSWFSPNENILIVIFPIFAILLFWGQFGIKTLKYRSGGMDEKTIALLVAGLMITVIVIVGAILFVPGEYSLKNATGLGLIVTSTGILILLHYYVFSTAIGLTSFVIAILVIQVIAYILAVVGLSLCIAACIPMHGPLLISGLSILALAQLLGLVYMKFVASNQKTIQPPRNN
For experiment [9], the target named is T2, human CD47 protein. The experiment can be described thus: SPR (Biacore T200), antibody captured on protein A chip, CD47 protein in solution. On the procedure:
The affinity of antigen-antibody binding was measured by SPR (surface plasma resonance). […] During the dissociation phase, elution was continued for 360 s with HBS-EP buffer. The binding of CD47 to the antibody on the sensor chip was quantitatively determined using Biacore T200 (GE Healthcare).

As a reminder, the EC50 is the concentration giving half of the maximal effect. For orientation: IC50 means the point on the concentration scale where inhibition reaches its midpoint. A word on the Kd: it is the free concentration of one partner at which half of the binding sites on the other are occupied at equilibrium, for simple one-to-one binding. For orientation: koff means the rate constant with which the complex falls apart. In general, kon refers to a measure of how fast the partners come together.

monkey CD47 on monkey erythrocytes (monkey), sequence (A0A2K5 entry or part of it limits assumed): as the sequence (A0A2K5X4H8 entry or part of it limits assumed) above

Regarding positive control antibody Hu5F9, in experiment [1], the EC50 was 0.586 µg/mL and the plateau worked out at 392.

B1: human-mouse chimeric antibody UM03-L4 (antibody, human IgG4 S228P, kappa, V domains shown)
VH: EVKLVESGGDLVQPGGSRKLSCAASGFTFSDYGMAWIRQAPGKGPEWIAFITNLASSIYYADTVTGRFTISRENAKNTLYLEMSSLRSEDTAMYYCARAGDYRSFPYWGQGTPVTVSA
VL: EILLTQSPAIIAASPGEKVTITCSASSSVNYVNWYQQKPGSSPKIWIYGISNLASGVPARFSGSGSGTSFSFTINSMEAEDVATYYCQQRSTFPPYTFGGGTKLEIKR
notes: expressed in HEK293 cells
In the experiment with human CD47 on cells [2], B1 registered an IC50 of 3.38 µg/mL. In addition, the EC50 with human CD47 on cells [3] amounted to 0.381 µg/mL; with human CD47 on cells [4], 0.216 µg/mL; in the experiment with human CD47 on cells [5] it was 1.21 µg/mL; with human CD47 on cells [6], 0.142 µg/mL; with human CD47 protein [7], 0.25 µg/mL; in experiment [8] it was 0.907 µg/mL.

B2: humanized antibody UM03-C4 (antibody, human IgG4 S228P, kappa, V domains shown)
VH: QVQLVESGGGVVQPGGSLRLSCAASGFTFSDYGMAWIRQAPGKGPEWIAFITNLASSIYYADTVTGRFTISRDNSKNTLYLQMNSLRAEDTAVYYCARAGDYRSFPYWGQGTLVTVSA
VL: EIVLTQSPATLSLSPGERATLSCSASSSVNYVNWYQQKPGQAPRILIYGISNLASGVPARFSGSGSGTDFTLTISSLEPEDFAVYYCQQRSTFPPYTFGQGTKLEIKR
notes: expressed in HEK293 cells
For the molecule B2, in the experiment with human CD47 on cells [2], the IC50 turned out to be 2.4 µg/mL. Further, the EC50 with human CD47 on cells [3] was determined as 0.354 µg/mL; with human CD47 on cells [4], 0.126 µg/mL; with human CD47 on cells [5] it was 0.93 µg/mL; with human CD47 on cells [6], 0.119 µg/mL; with human CD47 protein [7], 0.169 µg/mL. This molecule also registered a Kd with human CD47 protein [9] of 190 pM. Moreover, the koff in the experiment with human CD47 protein [9] came to 0.000193 s⁻¹. Besides, the kon with human CD47 protein [9] stood at 1.02e+06 M⁻¹ s⁻¹.
